According to US20250295772A1 (ABATA THERAPEUTICS, published 2025):
Positions count from the first letter of the chain named.

T1: preproinsulin 73-90 peptide complexed with HLA-DRB1*04:01 (human, UniProt P01903 26-254; P01911 30-266)
T1 MHC II alpha: not shown
T1 MHC II beta: not shown
T1 peptide: GAGSLQPLALEGSLQKRG

B1: TCR-N (TCR, V domains shown)
V domain 1: GESVGLHLPTLSVQEGDNSIINCAYSNSASDYFIWYKQESGKGPQFIIDIRSNMDKRQGQRVTVLLNKTVKHLSLQIAATQPGDSAVYFCAEISKTSYDKVIFGPGTSLSVIP
V domain 2: NAGVTQTPKFRILKIGQSMTLQCAQDMNHNYMYWYRQDPGMGLKLIYYSVGAGITDKGEVPNGYNVSRSTTEDFPLRLELAAPSQTSVYFCASSYGPGGRNTIYFGEGSWLTVVE
B2: TCR-L (TCR, V domains shown)
V domain 1: RKEVEQDPGPFNVPEGATVAFNCTYSNSASQSFFWYRQDCRKEPKLLMSVYSSGNEDGRFTAQLNRASQYISLLIRDSKLSDSATYLCVVLRNSGNTPLVFGKGTRLSVIA
V domain 2: DAGITQSPRHKVTETGTPVTLRCHQTENHRYMYWYRQDPGHGLRLIHYSYGVKDTDKGEVSDGYSVSRSKTEDFLLTLESATSSQTSVYFCAIKPGQGNRGEQFFGPGTRLTVLE
B3: TCR-S DS (TCR, V domains shown)
V domain 1: QKEVEQDPGPLSVPEGAIVSLNCTYSNSAFQYFMWYRQYSRKGPELLMYTYSSGNKEDGRFTAQVDKSSKYISLFIRDSQPSDSATYLCAMSEYSGYALNFGKGTSLLVTP
V domain 2: GITQSPKYLFRKEGQNVTLSCEQNLNHDAMYWYRQDPGQGLRLIYYSQIVNDFQKGDIAEGYSVSREKKESFPLTVTSAQKNPTAFYLCASSNRDEQYFGPGTRLTVTE
B4: TCR-Q (TCR, V domains shown)
V domain 1: KDQVFQPSTVASSEGAVVEIFCNHSVSNAYNFFWYLHFPGCAPRLLVKGSKPSQQGRYNMTYERFSSSLLILQVREADAAVYYCAVGDTGGFKTIFGAGTRLFVKA
V domain 2: DSGVTQTPKHLITATGQRVTLRCSPRSGDLSVYWYQQSLDQGLQFLIHYYNGEERAKGNILERFSAQQFPDLHSELNLSSLELGDSALYFCASSEIAGFSTDTQYFGPGTRLTVLE
B5: TCR-O (TCR, V domains shown)
V domain 1: KQEVTQIPAALSVPEGENLVLNCSFTDSAIYNLQWFRQDPGKGLTSLLLIQSSQREQTSGRLNASLDKSSGRSTLYIAASQPGDSATYLCAVTGMDSSYKLIFGSGTRLLVRP
V domain 2: DAEITQSPRHKITETGRQVTLACHQTWNHNNMFWYRQDLGHGLRLIHYSYGVHDTNKGEVSDGYSVSRSNTEDLPLTLESAASSQTSVYFCASSEGGSWGYTFGSGTRLTVVE
B6: TCR-K (TCR)
TCR alpha: RGNGKNQVEQSPQSLIILEGKNCTLQCNYTVSPFSNLRWYKQDTGRGPVSLTIMTFSENTKSNGRYTATLDADTKQSSLHITASQLSDSASYICVVSASSNTGKLIFGQGTTLQVKPDIQNPDPAVYQLRDSKSSDKSVCLFTDFDSQTNVSQSKDSDVYITDKTVLDMRSMDFKSNSAVAWSNKSDFACANAFNNSIIPEDTFFPSPESSCDVKLVEKSFETDTNLNFQNLSVIGFRILLLKVAGFNLLMTLRLWSS
TCR beta: DAGVIQSPRHEVTEMGQEVTLRCKPISGHNSLFWYRQTMMRGLELLIYFNNNVPIDDSGMPEDRFSAKMPNASFSTLKIQPSEPRDSAVYFCASSGQLVAYNEQFFGPGTRLTVLEDLKNVFPPEVAVFEPSEAEISHTQKATLVCLATGFYPDHVELSWWVNGKEVHSGVSTDPQPLKEQPALNDSRYCLSSRLRVSATFWQNPRNHFRCQVQFYGLSENDEWTQDRAKPVTQIVSAEAWGRADCGFTSESYQQGVLSATILYEILLGKATLYAVLVSALVLMAMVKRKDSRG
B7: TCR-K DS (TCR)
TCR alpha: B6 TCR alpha with T165C
TCR beta: B6 TCR beta with S172C
B8: TCR-M (TCR, V domains shown)
V domain 1: DQQVKQNSPSLSVQEGRISILNCDYTNSMFDYFLWYKKYPAEGPTFLISISSIKDKNEDGRFTVFLNKSAKHLSLHIVPSQPGDSAVYFCAASAKTSGSRLTFGEGTQLTVNP
V domain 2: NAGVTQTPKFRILKIGQSMTLQCTQDMNHNYMYWYRQDPGMGLKLIYYSVGAGITDKGEVPNGYNVSRSTTEDFPLRLELAAPSQTSVYFCASRGGIQETQYFGPGTRLLVLE

Molecular target: T1, preproinsulin 73-90 peptide complexed …
Assay: cell-based or functional assay

Binder	EC50 (nM) of CD69 upregulation, conventional CD4+ T cells + BLS-DRB1*04:01 cells, peptide titrated
B1	28.2 nM
B2	498 nM
B3	10000 nM
B4	409 nM
B5	6.34 nM
B6	47.7 nM
B7	19.1 nM
B8	244 nM
